According to article PMC8943916:

Molecular target: TIM (the TIM-EGFP-LacI bait of the FRAP experiment, not named)
Experiment: FRAP

TagRFP-IWS1-TND (from UniProt Q96ST2 614-692) (domain or fragment)
FRAP half-life: 11.7 s
